Measurements from patent US20230192834A1.
Changes are numbered by the printed parent chain. Each block holds one binder with its values, some of them ahead of it.

Tests used:
TGFβ2 (R&D Systems) [1] = molecular target: T1, TGFβ2 (R&D Systems); assay: SPR (Biacore T200), TGFβ amine-coupled to chip, 1:1 fit
T1 sequence (P61812 303-414, species assumed, looked up): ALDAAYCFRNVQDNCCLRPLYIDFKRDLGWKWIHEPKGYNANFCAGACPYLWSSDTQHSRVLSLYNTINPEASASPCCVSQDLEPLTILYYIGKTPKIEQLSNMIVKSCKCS

TGFβ1 (R&D Systems) [2] = assay: as above
TGFβ3 (R&D Systems) [3] = molecular target: T2, TGFβ3 (R&D Systems); assay: as above
T2 sequence (P10600 301-412, species assumed, looked up): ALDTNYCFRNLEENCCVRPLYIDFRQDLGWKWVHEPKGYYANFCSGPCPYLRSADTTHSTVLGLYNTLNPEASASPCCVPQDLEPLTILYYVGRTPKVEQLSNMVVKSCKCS

TGFβ2 (R&D Systems) [4] = molecular target: T1, TGFβ2 (R&D Systems); assay: cell-based or functional assay
TGFβ1 (R&D Systems) [5] = assay: cell-based or functional assay
TGFβ3 (R&D Systems) [6] = molecular target: T2, TGFβ3 (R&D Systems); assay: cell-based or functional assay

TGFβ1 (R&D Systems), sequence (P01137 279-390): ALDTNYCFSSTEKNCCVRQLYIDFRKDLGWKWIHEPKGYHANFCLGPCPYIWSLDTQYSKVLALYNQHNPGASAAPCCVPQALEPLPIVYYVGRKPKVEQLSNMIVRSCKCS

B1: Felinized anti-TGFβ1,2,3 antibody VH3.2 - VL3 (antibody, V domains shown)
VH: DVQLVESGGDLVKPGGSLRLTCVASGYTFSSNVMHWVRQAPGKGLQWVAYVIPIVDIAYYADSVKGRFTISIDNSKNTLYLQMNSLKTEDTATYYCARTLGLVLDAMDYWGQGTLVTVSS
VL: EIQMTQSPSSLSASPGDRVTITCRASQSLGSSYLAWYQQKPGKVPKLLIYGASSRAPGVPSRFSGSGSGTDFTLTISSLEPEDAATYYCQQYADSPITFGQGTKLEIKR
Kd (TGFβ2 (R&D Systems) [1]): 0.751 nM
Kd (TGFβ1 (R&D Systems) [2]): 0.66 nM
Kd (TGFβ3 (R&D Systems) [3]): 0.144 nM
TGFb2 IC50 (SMAD3 phosphorylation in CMVICs, AlphaLISA) (TGFβ2 (R&D Systems) [4]): 0.14 µg/mL
TGFb1 IC50 (SMAD3 phosphorylation in CMVICs, AlphaLISA) (TGFβ1 (R&D Systems) [5]): 0.132 µg/mL
TGFb3 IC50 (SMAD3 phosphorylation in CMVICs, AlphaLISA) (TGFβ3 (R&D Systems) [6]): 0.023 µg/mL

B4: Felinized anti-TGFβ1,2,3 antibody VH3.2 - VL7 (antibody, V domains shown)
VH: B1 VH
VL: DIVLTQPPSLSVNLGQTARITCRASQSLGSSYLAWYQQKPGQAPKLVTYGASSRAPGIPDRFSGTNSGITATLTISGARAEDEADYYCQQYADSPITFGQGTKLEIKR
Kd (TGFβ2 (R&D Systems) [1]): 0.589 nM
Kd (TGFβ1 (R&D Systems) [2]): 0.857 nM
Kd (TGFβ3 (R&D Systems) [3]): 0.434 nM
TGFb2 IC50 (SMAD3 phosphorylation in CMVICs, AlphaLISA) (TGFβ2 (R&D Systems) [4]): 0.048 µg/mL
TGFb1 IC50 (SMAD3 phosphorylation in CMVICs, AlphaLISA) (TGFβ1 (R&D Systems) [5]): 0.139 µg/mL
TGFb3 IC50 (SMAD3 phosphorylation in CMVICs, AlphaLISA) (TGFβ3 (R&D Systems) [6]): 0.018 µg/mL

B5: Felinized anti-TGFβ1,2,3 antibody VH2.2 - VL7 (antibody, V domains shown)
VH: QVLLVQSGADVRKPGASVKIFCKASGYTFSSNVMHWVRQTPAQGFEWMGSVIPIVDIATYARRFQGRLVLTADTSTNTAYMELRSLKSADTAVYYCARTLGLVLDAMDYWGQGSLVTVSS
VL: B4 VL
Kd (TGFβ2 (R&D Systems) [1]): 2.16 nM
Kd (TGFβ1 (R&D Systems) [2]): 4.95 nM
Kd (TGFβ3 (R&D Systems) [3]): 3.52 nM
TGFb2 IC50 (SMAD3 phosphorylation in CMVICs, AlphaLISA) (TGFβ2 (R&D Systems) [4]): 20.6 µg/mL
TGFb1 IC50 (SMAD3 phosphorylation in CMVICs, AlphaLISA) (TGFβ1 (R&D Systems) [5]): 4.59 µg/mL
TGFb3 IC50 (SMAD3 phosphorylation in CMVICs, AlphaLISA) (TGFβ3 (R&D Systems) [6]): 2.2 µg/mL

Continued by falling Kd (TGFβ2 (R&D Systems) [1]), values first:

Kd (TGFβ2 (R&D Systems) [1]): 3.41 nM
Kd (TGFβ1 (R&D Systems) [2]): 3.31 nM
Kd (TGFβ3 (R&D Systems) [3]): 1.06 nM
TGFb2 IC50 (SMAD3 phosphorylation in CMVICs, AlphaLISA) (TGFβ2 (R&D Systems) [4]): 0.031 µg/mL
TGFb1 IC50 (SMAD3 phosphorylation in CMVICs, AlphaLISA) (TGFβ1 (R&D Systems) [5]): 0.266 µg/mL
TGFb3 IC50 (SMAD3 phosphorylation in CMVICs, AlphaLISA) (TGFβ3 (R&D Systems) [6]): 0.124 µg/mL
B7: Felinized anti-TGFβ1,2,3 antibody VH2.1 - VL8 (antibody, V domains shown)
VH: B5 VH with S30T, M34I, H35S, S50G, T59N, R62Q, Q65K, R98S
VL: DIVMTQSPGSLAGSPGQQVTMNCRASQSLGSSYLAWYQQKPGQHPELLIYGASSRAPGVPDRFSGSGSGTDFTLTISNLQAEDVANYYCQQYADSPITFGQGTKLEIKR

Kd (TGFβ2 (R&D Systems) [1]): 2.13 nM
Kd (TGFβ1 (R&D Systems) [2]): 0.971 nM
Kd (TGFβ3 (R&D Systems) [3]): 0.0466 nM
TGFb2 IC50 (SMAD3 phosphorylation in CMVICs, AlphaLISA) (TGFβ2 (R&D Systems) [4]): 0.037 µg/mL
TGFb1 IC50 (SMAD3 phosphorylation in CMVICs, AlphaLISA) (TGFβ1 (R&D Systems) [5]): 0.072 µg/mL
TGFb3 IC50 (SMAD3 phosphorylation in CMVICs, AlphaLISA) (TGFβ3 (R&D Systems) [6]): 0.008 µg/mL
B2: Felinized anti-TGFβ1,2,3 antibody VH3.2 - VL8 (antibody, V domains shown)
VH: B1 VH
VL: B7 VL

Kd (TGFβ2 (R&D Systems) [1]): 1.94 nM
Kd (TGFβ1 (R&D Systems) [2]): 3.07 nM
Kd (TGFβ3 (R&D Systems) [3]): 0.635 nM
TGFb2 IC50 (SMAD3 phosphorylation in CMVICs, AlphaLISA) (TGFβ2 (R&D Systems) [4]): 2.67 µg/mL
TGFb1 IC50 (SMAD3 phosphorylation in CMVICs, AlphaLISA) (TGFβ1 (R&D Systems) [5]): 1.36 µg/mL
TGFb3 IC50 (SMAD3 phosphorylation in CMVICs, AlphaLISA) (TGFβ3 (R&D Systems) [6]): 0.204 µg/mL
B6: Felinized anti-TGFβ1,2,3 antibody VH3.8 - VL7 (antibody, V domains shown)
VH: QVQLVQSGAEVKKPGSSVKVSCKASGYTFSSNVISWVRQAPGKGLQWVAGVIPIVDIANYAQRFKGRFTISIDNSKNTLYLQMNSLKTEDTATYYCASTLGLVLDAMDYWGQGTLVTVSS
VL: B4 VL

Kd (TGFβ2 (R&D Systems) [1]): 1.84 nM
Kd (TGFβ1 (R&D Systems) [2]): 0.333 nM
Kd (TGFβ3 (R&D Systems) [3]): 0.0051 nM
TGFb2 IC50 (SMAD3 phosphorylation in CMVICs, AlphaLISA) (TGFβ2 (R&D Systems) [4]): 0.19 µg/mL
TGFb1 IC50 (SMAD3 phosphorylation in CMVICs, AlphaLISA) (TGFβ1 (R&D Systems) [5]): 0.797 µg/mL
TGFb3 IC50 (SMAD3 phosphorylation in CMVICs, AlphaLISA) (TGFβ3 (R&D Systems) [6]): 0.053 µg/mL
B3: Felinized anti-TGFβ1,2,3 antibody VH3.2 - VL1 (antibody, V domains shown)
VH: B1 VH
VL: ETVLTQSPGTLSLSPGERATLSCRASQSLGSSYLAWYQQKPGQAPRLLIYGASSRAPGIPDRFSGSGSGTDFTLTISRLEPEDFAVYYCQQYADSPITFGQGTKLEIKR
